These results are taken from patent publication US20060183888A1.

Substrate in this data set: C[C@@H]1CC=N[C@H]1C(=O)NCCCC[C@H](N)C(=O)O
Kind of data set: purified protein, by the assay type. The conditions noted are these: other: 37° C., pH 7.2.

Method: The pyrophosphate exchange reaction was essentially performed following the method of Cole and Schimmel. All reactions were performed in duplicate at 37° C. The 100 to 200 μl reactions contained (unless noted) 0.3 to 1 HM PylSHis6. […] The specific activity of the radiolabel was adjusted from 4 to 10 dpm/pmol). The concentration of protein was 0.3 to 1 μM. At specific times, 25 μl aliquots were removed and quenched in 500 μl of a stop solution containing 1.6% (w/v) activated acid-washed charcoal (Sigma Chemical Co., St. Louis, Mo.), 80 mM sodium tetrapyrophosphate, and 3.5% (v/v) perchloric acid. Samples were filtered through Whatman GF/C glass-fiber filters and then the filter was washed three times with 5 ml of 40 mM sodium tetrasodium pyrophosphate solution containing 1.7% perchloric acid (v/v) and once with 5 ml 100% ethanol. Filters were dried at 80° C. for 5 minutes then placed in 20 ml scintillation vials containing 10 ml of Ultima Gold F scintillation cocktail (PerkinElmer), shaken once, and counted in a liquid scintillation analyzer. Identical reactions without amino acid, ATP, or enzyme were also set up as negative controls in duplicate.

B1: PylS-His6 (Methanosarcina barkeri) (protein)
chain: MDKKPLDVLISATGLWMSRTGTLHKIKHHEVSRSKIYIEMACGDHLVVNNSRSCRTARAFRHHKYRKTCKRCRVSDEDINNFLTRSTESKNSVKVRVVSAPKVKKAMPKSVSRAPKPLENSVSAKASTNTSRSVPSPAKSTPNSSVPASAPAPSLTRSQLDRVEALLSPEDKISLNMAKPFRELEPELVTRRKNDFQRLYTNDREDYLGKLERDITKFFVDRGFLEIKSPILIPAEYVERMGINNDTELSKQIFRVDKNLCLRPMLAPTLYNYLRKLDRILPGPIKIFEVGPCYRKESDGKEHLEEFTMVNFCQMGSGCTRENLEALIKEFLDYLEIDFEIVGDSCMVYGDTLDIMHGDLELSSAVVGPVSLDREWGIDKPWIGAGFGLERLLKVMHGFKNIKRASRSESYYNGISTNL
On to B1, for which the Km (usually the substrate concentration at which the rate is half of its maximum) turned out to be 53 µM; the kcat (in general, the number of substrate molecules converted per active site and unit of time at saturation) was found to be 0.1 s⁻¹.
